Values of other authors as cited in patent publication US10525162B2, “Sophorolipid mediated accelerated gelation of silk fibroin” (COUNCIL OF SCIENTIFIC & INDUSTRIAL RESEARCH, priority 2014, dated 2020).

Conditions: aqueous SF solution without additive, below the isoelectric pH

For “SF: Silk fibroin, fibrous protein derived from silkworm Bombyx mori”, which gelation time is on record?
The gelation time was 10 to 16 h.
